From a protein production outcome set (Wang et al. 2014) come the findings set out here.

A short description of the data set: label from the status in PepcDB records.
As for “MAVPTELDGGSVKETAAEEESRVLAPGAAPFGNFPHYSRFHPPEQRLRLLPPELLRQLFPESPENGPILGLDVGCNSGDLSVALYKHFLSLPDGETCSDASREFRLLCCDIDPVLVKRAEKECPFPDALTFITLDFMNQRTRKVLLSSFLSQFGRSVFDIGFCMSITMWIHLNHGDHGLWEFLAHLSSLCHYLLVEPQPWKCYRAAARRLRKLGLHDFDHFHSLAIRGDMPNQIVQILTQDHGMELICCFGNTSWDRSLLLFRAKQTIETHPIPESLIEKGKEKNRLSFQKQ”, the protein production entry was “failed”.

For “MDTLDGLKTVVAVVETNSFTAASDRLGISKALVSKYVGEVENQLGIRLFNRTTRQLALTDSGRRYYEEAIILLEQFSAMVDNVTGEQTAPRGLLRISAPVTFGEMRLAPLLPKFIALYPDLTVELVLTNGAIDMLEEGIDVRLRIGGVDDSNMIARHLTNFPLVLSASPNYAQTQGLPTTPEQLGEHHCIIDSNFRIGKQWPFISPKGRAETINVQSGLAVNSPQAVREIAIADGGIAMTPNFIVEDALADGRLLRVMPEYTTLEFGLFAIYPHRKYVARKVRCFIDFVLEQFSKK”, the protein production result is “failed”.

Consider “MKKIFVIITTLLAVAIIIGSIITVVFSQRQAQTFKIQQQQFVKKPIPTLFLHGFGGSANSEKFMVKQAEKRGVTKDIITAYVSKDGAVTFKGKLRKDAVNPIVKIELENNRQGYLDKNAAWFKNVLTKLQSEYNFDKFNFVGHSMGNLTFAQYMMTYGNDKSLPQLNKQVNIAGTFNGVLNMNEDVNEITVDKDGKPSRMNQPYQQLRVLKDIYKGKGIEVLNIYGDLKDGTHSDGRVSNSSSKSLKYLLGNSPKSYRESKYEGEPAQHSQLHENENVANELIDFLWKK”, for which the protein production result is recorded as “failed”.

Turning to “MATPQDKLHTVRLFGTVAADGLTMLDGAPGVRFRLEDKDNTSKTVWVLYKGAVPDTFKPGVEVIIEGGLAPGEDTFKARTLMTKCPLEHHHHHH”, the protein production entry is “not failed”.

Take “MHIKSAIIVVSDRISTGTRENKALPLLQRLMSDELQDYSYELISEVVVPEGYDTVVEAIATALKQGARFIITAGGTGIRAKNQTPEATASFIHTRCEGLEQQILIHGSTHTHLAGLSRGIVGVTGRDDHAALIVNAPSSSGGITDTWAVISPVIPNIFEGLDAS”: the protein production result is “not failed”.

Take “MQDLGIAFQTAVGDSGGNLDGRTPLPSNDWLMKRNCSLTPRQAGWFYFSIVCFSTAIAVFFAVWLGAWLVLPFAGLELLGLGIALLAYARHAADYERVSVTDGMLVVETASASRITREVFNPRWVRVELGESFRAPVVLRSDKRSVQVGLYLDPYRRRKFAQELAVALQRV”: the protein production result is listed as “failed”. With “MSLTNHEQVLTDYLAAFIEELVRAGVKEAIISPGSRSTPLALMMAEHPILKIYVDVDERSAGFFALGLAKASKRPVVLLCTSGTAAANYFPAVAEANLSQIPLIVLTADRPHELRNVGAPQAMDQLHLYGSHVKDFTDMALPENSEEMLRYAKWHGSRAVDIAMKTPRGPVHLNFPLREPLVPILEPSPFTATGKKHHHVHIYYTHEVLDDSSIQKMVTECTGKKGVFVVGPIDKKELEQPMVDLAKKLGWPILADPLSGLRSYGALDEVVIDQYDAFLKEAEIMDKLTPEVVIRFGSMPVSKPLKNWLEQLSDIRFYVVDPGAAWKDPIKAVTDMIHCDERFLLDIMQQNMPDDAKDAAWLNGWTSYNKVAREIVLAEMANTTILEEGKIVAELRRLLPDKAGLFIGNSMPIRDVDTYFSQIDKKIKMLANRGANGIDGVVSSALGASVVFQPMFLLIGDLSFYHDMNGLLMAKKYKMNLTIVIVNNDGGGIFSFLPQANEPKYFESLFGTSTELDFRFAAAFYDADYHEAKSVDELEEAIDKASYHKGLDIIEVKTNRHENKANHQALEGHHHHHH” the entry was “not failed”; with “DARVQVMGIDAGGTMTDTFFVKENGSFVVGKAQSNPEDESLAIYNSSQDALSHWKSDVSKVYPELVTCVYSGTAMLNRVVQRRGMEVGLICNKGFEQMHSMGRALQSYLGYALEERLHINTHKYDDPLIPLKRIRGVTERTDVKGQVVIPVRQEEVKVAVKELLEAGAKAIVICLLQSHKNAESERIVRDIALKEIEKLGKN”, “failed”; with “MKRKTIRILLISSGLILILLVGYRLYLEYQTDIQLFLNPKASKTQLLERIRSHGFSAALLLVFLTAIMCAVPGIPTSVIGVIAGLSFGPFSGTLINVLGNSMGNLVAIFLMHHIKFLDKKTETNHWVQSIRRMKHPKIGIMVGYMIPIIPSSVINFAADTMQLPLKNLIAAIFIGVIPSSILYACGGEALFHGYNKTAVLLIVSVLLFVGLVVIIEKDRKRFQKTVL”, “failed”. With “MTCHNAAGALEPTGSAAKTLPDGLHALMTAEELAFFARFGRLREVSAGQSLFERGAVGTQMYIVVSGQIDLDFGEDLMLKHLGPGEFFGELGLLIGDHARSAGASASTDSRLIELAHDDFQRLVDQDPSMVAHFLRRSIVRVVNNEQLLIRQLRRRNHDLEAALDNLYVTSHQLNHTEELSRTDELTGLHNRRGLALHLQECRRAGHVPGVGLILIDCDRFKRINDEFGHLAGDRVLQNVAHALRSVIAEGDLACRLGGDEFCVLVAQGTSELVHHIGECIVRAVEARLCNGQGEQGCSVSVGSCMIDADAAWNDWYTLADSALYEAKRQGGNVLCMQETLALDQPPASGHR”, the protein production entry is on record as “failed”. Consider “KNIVVDFTEYNPLHNGHKYCMDFGKSEGLFISVIPGPLERSGRGIPYLVNRHIRAEMALLAGADLVVEGPPMGIMGSGQYMQCLIKIFSALNGDIIPRGYIEEETMERVINSINNGNHIKIKPYNISCIETREKLGEKLEIDNYVIASMSYTIYKLKENFPKWNPKFKFIERIEGISGTKIREGVFNNNFESIKHMLPITTIDVFKNFGDNLSEIILKRNEEMVLDTVNNFDLNKYLPENISEKLNEKEYYESIE”, for which the protein production result is recorded as “not failed”.

Take “MYLAASADTKPLPDSDDEEDQHTNAVSIPIAVHNMASALLQVEQAIGKRFLKEPYGMKKWDPKQEALKLACDSRLHQWEVSLMESTSFAQVFLHLNILHDCIQWRRSTNKSLCKVCRRGSDPEKMLLCDECNAGTHMFCLKPKLRSVPPGNWYCNDCVKSLGLSNG”: the protein production entry is “failed”. “MEGIMNPYTALPTPQQLLAIEQSVYSSDPFRQGLTPPQMPGDHMHPYGAEPLFHDLDSDDTSLSNLGDCFLATSEAGPLQSRVGNPIDHLYSMQNSYFTS”: the protein production entry is given as “not failed”. Turning to “MSPVLLFILGVVFVAIGVAVSIALHEVGHLVPAKLFKVRVTKYMIGFGPTLWSKKKGETEYGFKALPLGGYVSMIGMYPPNKEDGAVRPSSTGMFQTLATEARSMAHEEVGPGDENRVFYKLPVWKKIIVMLGGPAMNMLIGLILLAVLLMGFGMATATTTIADVSKCQVAAGETVDPDSADCKLTPAAAAGLQPNDTITSFDGKAVTSWDELTSWIRASAGRDVPITVERNGSTVETTVTPVLSSRPVVGADGRPEQDADGVLKYQEVGFLGIGAQSELVPQPASAVLPMAGENIKQISGVIFNLPARVVGVAKAAFSEEPRDPNGPISVVGVGRVAGEVAAMEQVPMQARIGTLIGLLAGLNFALAIFNLIPLLPLDGGHVAGALYEGARRRVAKLLGKPDPGAFDIAKLLPATYVVAALLMAMGALLIYADIVKPVNIFG”, the protein production result is on record as “failed”. Turning to “MNTTLFRWPVRVYYEDTDAGGVVYHASYVAFYERARTEMLRHHHFSQQALMAERVAFVVRKMTVEYYAPARLDDMLEIQTEITSMRGTSLVFTQRIVNAENTLLNEAEVLVVCVDPLKMKPRALPKSIVAEFKQ”, the protein production entry was “not failed”.

Take “MLTTFIVNSPILASIVFTLITIATYQFASACQQKWQYIWLNPMLFTISILVPFLLLIDINYQEYSQTTEILNLLLEPAIVALGMPLYQQFKQIRFYWREMTAILVLGITVVITVSFLLAMWLIKAPEIAIALSLKSVTTPIGITLTEQLFGDSSITAFAILIAGLFGALLGPQWLSFIGINSAKAQGLAIGSASHVIGTAVLVRKSAEHGAYSSVALILSAILTALISPWLIPLLQRLVT”: the protein production result is reported as “failed”. For “KNFNPPTRRNWESNYFGMPLQDLVTAEKPIPLFVEKCVEFIEDTGLCTEGLYRVSGNKTDQDNIQKQFDQDHNINLVSMEVTVNAVAGALKAFFADLPDPLIPYSLHPELLEAAKIPDKTERLHALKEIVKKFHPVNYDVFRYVITHLNRVSQQHKINLMTADNLSICFWPTLMRPDFENREFLSTTKIHQSVVETFIQQCQFFFYNGEIVE”, the protein production entry is “not failed”. Turning to “MTAPTLSRAAMEKVIRTYYDGCNEADEAKMIACFVPEAVHYFPAGMYGGAFRGAAQIAHRWRTAVETLGSYWTIDALVIDAETAEAAIEWTHFKTNQDKVLRGAECVEFDRASGLIREIRAFYASPQAEGIARLELGDFDYAGRGYRVTSPRKPA”, the protein production entry is listed as “not failed”.

With “MVNDIKKTALAVVTALITAVSAQLSFKIGPVPYTMQNFGVMLSGFLLGPYYGLLSMAIYLALIAFSLPIAAGGGGLGVLIGPTAGFLYGFLISSFLAGVFRRAIWREGSRREVLMLWLSTLVASMPIYLLGFFVFYNFAMIDEKLLIRSESAVRAFNLSFSSPTMVIFAATVLIFLPQDFFVDHLLAVLVFRYVHRMLNERGVEVD”, the protein production entry is reported as “failed”.

With “MKIIIIGCGKVGAYVAKQLLDSHHQVTIIERDQKRFEQVLQIFSQAEVLHGDGTSPILLEKCSVETANAVAYLTGKDEINLVGSTVAKFNYAVDRVVARVNNPKNEWLFNADMGVDSRVSQASLLASVIINEVNIESTATLLKLNDDENAIVEFVLSKGASVHGKTVKTINFPSDVVLISVHRQGQNIIPKGETVLLEGDHILAYTNSQNQEKLAQLFR”, the protein production result is reported as “failed”. Regarding “DETQVLATVTQELANLFQLESCYIELYNTDCTAVSVVCEYAANQPTYQGLTRQIADFSEIYQPLLQKQHFQTIEIVPGWHPQLLVITQLACPIFDAQGMLGNLWLIRPIQQMLSQSEICLVQTLANLCAIAIRQAKLDATNQARLKKLEQRESLTNKFLRKLSQELRTPITSISLAAQTLETVLSPTI”, the protein production result is “failed”. As for “AKGLRTVKTCVGSDWCRFGTQDSTGLGIRIERFMWGSWTPAKLKMAVSGCPRNCAEATCKDIGVICVDSGFEIHFAGAAGLDIKGTEVLGLVRTEDEALEYIVALTQMYREQARYLERIYKWAKRIGLEEIRRQIMGDAEK”, the protein production result is given as “failed”. Consider “MAGGHCGSFAAAAASSGEIVQLNVGGTRFSTSRQTLMWIPDSFFSSLLSGRISTLRDETGAIFIDRDPAAFAPILNFLRTKELDLRGVSINVLRHEAEFYGITPLVRRLLLCEELERSSCGSVLFHGYLPPPGIPSRKGTNTARSSVDARNGLSSMEGEARGSGTQPVLAGNGEDTIRLVDKLSVESWPVGVPVDPRKVLIVAGHHNWIVAAYAHFAVCYRIKESSGWQQVFTSPYLDWTIERVALNAKVVGGPHGDKDKMVAVASESSIILWSVQDGGSGSEIGVFSLGVPVDALFFIGNQLVATSHTGKVGVWNAVTQHWQVQDVVPITSYDTAGSFLLLGCNNGSIYYIDMQKFPLRMKDNDLLVTELYHDPSNDAITALSVYLTPKTSVSGNWIEIAYGTSSGAVRVIVQHPETVGSGPQLFQTFTVHRSPVTKIMLSEKHLVSVCADNNHVRTWTVTRFRGMISTQPGSTPLASFKILSLKRQRATAAIPLEMTSGLLENEMINKCLSRRLFPSPTSCLSGCHRLEKGYVRSRLWTALQSPRSLXESARAPAGWAPGQGATCSLATPTAASRCGTXPQPWTWSTRARTRTQAAPLRKSCSSCWTSVIXARPAAPRPTSALPPLCSSTAAFVSPAPAFSSSTTKPSMKQQPMVPRGLTERALCXPEQGGLRASTATGTCRLSISTELXRELSLRMVTRAQPRLRQKGQQQGSVLCVRGSPRGQREDVXGSPMWAXTCTDQRKVCQSPRKGQQRMKMSPKWSSGRKDSKQGDSLEERKFPIWHPHQVPLMEGPTPLVQHPRLQLRPLRHLGTERATPLARSTAC”, for which the protein production result is “failed”.
